From the supplement of paper PMC9170038

Test system: MS2 coat protein
Assay: apparent KD of MS2 coat protein; higher = weaker reporter binding
Settings: Eterna round: R107
Protocol: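 RNA-MaP round R107: designed RNA switches with theophylline, tryptophan, arginine or FMN aptamers are transcribed on-chip within common flanks. They are titrated with SNAP-549-labelled MS2 coat protein in RNA-MaP buffer (100 mM Tris pH 7.5, 80 mM KCl, 4 mM MgCl2), without ligand or with the indicated ligand. Median apparent KD per design.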

[1] = input ligand: theophylline 20 uM
[2] = input ligand: theophylline 2 mM
[3] = input ligand: tryptophan 2.4 mM

Row | Sequence | apparent KD of MS2 coat protein (input ligand: arginine 13.2 mM) [nM] | apparent KD of MS2 coat protein (input ligand: none) [nM] | apparent KD of MS2 coat protein [1] [nM] | apparent KD of MS2 coat protein [2] [nM] | apparent KD of MS2 coat protein [3] [nM]
1 | AAAGAACAUGAGGAUCACCCAUGUACCGAAGGAGCGGCGAAGAAGCCAGGUAGGUCGCGGAACAUGAAGCGAUUAAGAAUUAAUU | 21.5 | 19.3 | 25.7 | 21 | 20.4
2 | AAAGAUCGGAAACGAUCGGCGGCUUGGGCGCGAGGACCGGUACGGCCGCCACUCGGGCAACAUGAGGAUCACCCAUGUUCCUCAU [ETA NP+V+V2 #17] | 75.5 | 146 | 245 | 180 | 189
3 | AAAUAAAUACAUGAGGAUCACCCAUGUGAAGGAGCGCCCGUUAGGGCAGGUAGGUCGCACAUGAACUCCAAAGUGCAAAAGCACA [ArgEX 17 #OpenEnded] | 35.7 | 21.5 | 29.7 | 27.4 | 25.4
4 | AAAUAAUAUUAAUUAAUUAUAUUAUUCUGACGAGGACCGGUACGGCCGCCACUCGGCCCAUGGUACAUGAGGAUCACCCAUGUCU [Same State - Tryptophan A] | 17 |  | 17.2 | 18.9 | 
5 | AACAUGAGGAUCACCCAUGUCCCAUGUGAACGAGGACCGGUACGGCCGCCACUCGACCGAGGCGGCACAUGAGGAUCACCCGCAU [whbob_SS_trypto A_2s14] | 161 |  | 481 | 682 | 
6 | AACAUGAGGAUCACCCAUGUCCCUCCCUCCCGAGGACCGGUACGGCCGCCACUCGCCCUCCCUCCCUAAGAAAGAAAGAAGAAGA [Same State - Trypopjan A] | 54 | 37.9 | 38 | 38.5 | 32.1
7 | AACCACGAGUCGGCCGCCACUUGCAACUAGUUUCAGAAGCAGAAACAUGAGGAUCACCCAUGUCGAAGGACCGGGACUUUACAGG [theeternabot_sameState_MS2_Trp_B_18] | 21.6 |  | 23.2 | 17.4 | 
8 | AACCGAGGCUAUCCUCUACGACUAUGUGAUACCAGAAUAAUUUUAUUCCCUUGGCAGCAUGACAUGAGGAUCACCCAUGUCUCUU [SSTheo A #9] | 24 |  | 38.8 |  | 34
9 | AACCGAGGCUAUCCUCUCCGCCUAUGUGAUACCAGAAUAAUUUUAUUCCCUUGGCAGCAUGACAUGAGGAUCACCCAUGUCUCUU [SSTheo A #11] | 15.2 |  | 19.4 |  | 17.3
10 | AAGAAGUUUUGAUUUUUAUGAAGUAGUGAUACCAGUCAAGAAAGAGACCCUUGGCAGCGCAACAUGAGGAUCACCCAUGUAAGAA [A random design] | 26.2 |  | 26.7 |  | 24.2
11 | AAGCGGGCGACGGCCGCCACUUGCCUGUAAUUAGAGAAGGCACAUGAGGAUCACCCAUGUCCCGCAAGGACCGGGUUGCCUCACU [Ditiraorce] | 93.6 |  | 484 | 580 | 
12 | AAGGAACAUGAGGAUCACCCAUGUACCGAAGGAGCGGCAGAGAUGCCAGGUAGGUCGCGGUACUUGCCGGGUCAUUCAUGCAGAG [Arraiste] | 39.1 | 26.3 | 30.6 | 32.8 | 23.9
13 | AAGGUGAUCCCAGAUACCAGCCUAACAUGAGGAUCACCCAUGUUUGGGACGAAAGUCCCAGGCCCUUGGCAGCUGGGUUGCCAAG [SSTheo B #17] | 48.8 |  | 131 |  | 185
14 | AAUAAACAUGAGGAUCACCCAUGUAUGGAAGGAGCGGUGAAUAAACCAGGUAGGUCGCCAGUGUGAGGGUCAUCUAUGUAAUCAA [Exclusion - Arginine A (Freestyle 3)] | 29.1 | 42.1 | 58.3 | 49.3 | 49.5
15 | AAUAACAUGAGGAUCACCCAUGUAAAAGAUACCAGAUGCAUGAUGAUCCCUUGGCAGCUUAAACGCGAUUGAUUACAAUCGCGAA [Mat - Same State Theophlline A - Mod of Eli - D10] | 40.9 |  | 71.9 |  | 21.2
16 | AAUAACAUGAGGAUCACCCAUGUAAAAGAUACCAGAUGCAUGAUGAUCCCUUGGCAGCUUAACGCUGAUUGGAAACAAUCAGCGA [Mat - Same State Theophlline A - Mod of Eli - D9] | 175 |  | 62.1 |  | 14.7
17 | AAUAAGCAGCUGCCUUCCUCAUGAGCAGAUACCAGCUAGGAAACUAGCCCUUGGCAGCUGCAACAUGAGGAUCACCCAUGUAAUA [(T)'-(M)'-(T1)-(T2)-(M1)-(M2)_Design4] | 22.4 |  | 81.2 |  | 43.7
18 | AAUAAUAACAUGGGUGCACGAGUGGCAUAACGAGGACCGGUACGGCCGCCACUCGAACAUGAGGAUCACCCAUGUAGCCACUCGA [M'-T'-T-MS2-T'' - Design 4] | 55.1 | 102 | 102 | 132 | 20.5
19 | AAUAAUAAGGCGGCCGCCACUAAACAUGAGGAUCACCCAUGUCUCGAGCGCUUGCAUUUGGGAAGUAGGACCGGGCCAAUAAUAA [Exclusion - Tryptophan B (Freestyle 4)] | 14.5 | 21.4 | 28.8 | 22.6 | 19.4
